Assay results published in PMC10820826, “Interrogation and validation of the interactome of neuronal Munc18-interacting Mint proteins with AlphaFold2” (The Journal of Biological Chemistry, 2023).

What was measured:
[1] = target: Munc18-1-His (rat) (UniProt P61765)
[2] = target: Munc18-1 + Mint1 (rat | human) (UniProt P61765); assay: ITC

Row | Kd [1] [µM] | dH [1] [kcal/mol] | stoichiometry N [1] | dH [2] [kcal/mol] | Substance
1 | 216 | -57.6 | 1 | – | Mint1_14 peptide (261-282 A275A/E276A)
2 | – | – | – | -29.7 | Rat Sx1a (Sx1(1-261)-His) (from UniProt P32851 1-261) (domain or fragment)
